One data set concerns the target Src kinase (Homo sapiens, UniProt P12931). Put plainly: Kinase substrate peptide array incubated with Src kinase alone, phospho-specific fluorescent stain. Type of data set: biochemical. The conditions noted are these: incubation with Src alone; 200 μM ATP, 10 mM MgCl2, 1 hour at 30° C.; FIG. 4B. An excerpt:
(§1) An array of 2520 peptides with 6 different amino acid sequences repeated 420 times was synthesized in situ. The six sequences were designed to represent wild type and two mutated versions of substrates of Abl and Src tyrosine kinases. The sequence of the peptides were: Abl (wt)—AIYAAPFK (SEQ ID NO:10); Abl (Mt 1)—ARYAAPDK (SEQ ID NO:11); Abl (Mt 2)—AIGAAPFK (SEQ ID NO:12); Src (wt)—EIYGEFKK (SEQ ID NO:13); Src (mt1)—EAYGEAKK (SEQ ID NO:14); and Src (mt2)—EIAGEFKK (SEQ ID NO:15), as shown in FIG. 3A.
(§2) The array was synthesized on amino derivatized silicon wafers coupled with dO-(N-Boc-2-aminoethyl)-O′—(N-diglycolyl-2-aminoethyl)hexaethyleneglycol molecule for spacing out the peptides from the surface. The peptides were synthesized using photodeprotection and t-Boc protected amino acids.
(§3) The kinase substrate array was then assayed for detecting Abl and Src kinase activity. The protecting groups of the side groups of amino acids were cleaved by HBr/TFA treatment for one hour in the presence of the scavengers thioanisole and pentamethylbenzene. The array was subsequently neutralized by 5% DIEA treatment for 5 minutes. The array was blocked with 2% BSA for 1 hour for eliminating non-specific sticking of the kinase to the array. […] The kinase mixture was washed off and the phosphorylated peptides were detected by incubating the array with a phospho-specific fluorescent stain.

Data set [1] deals with combination of Abl and Src. Put plainly: Kinase substrate peptide array incubated with mixture of Abl and Src kinases, phospho-specific fluorescent stain. Type of data set: biochemical. As to conditions: incubation with combination of Abl and Src; 200 μM ATP, 10 mM MgCl2, 1 hour at 30° C.; FIG. 4C.
Description: as §1, §2, §3

The target of a further data set is Abl kinase (Homo sapiens, UniProt P00519). As to the kind of experiment: Kinase substrate peptide array incubated with Abl kinase alone, phospho-specific fluorescent stain. Type of data set: biochemical. As to conditions: incubation with Abl alone; 200 μM ATP, 10 mM MgCl2, 1 hour at 30° C.; FIG. 4A.
Sequence of Abl kinase (Homo sapiens, UniProt P00519) (P00519 whole entry): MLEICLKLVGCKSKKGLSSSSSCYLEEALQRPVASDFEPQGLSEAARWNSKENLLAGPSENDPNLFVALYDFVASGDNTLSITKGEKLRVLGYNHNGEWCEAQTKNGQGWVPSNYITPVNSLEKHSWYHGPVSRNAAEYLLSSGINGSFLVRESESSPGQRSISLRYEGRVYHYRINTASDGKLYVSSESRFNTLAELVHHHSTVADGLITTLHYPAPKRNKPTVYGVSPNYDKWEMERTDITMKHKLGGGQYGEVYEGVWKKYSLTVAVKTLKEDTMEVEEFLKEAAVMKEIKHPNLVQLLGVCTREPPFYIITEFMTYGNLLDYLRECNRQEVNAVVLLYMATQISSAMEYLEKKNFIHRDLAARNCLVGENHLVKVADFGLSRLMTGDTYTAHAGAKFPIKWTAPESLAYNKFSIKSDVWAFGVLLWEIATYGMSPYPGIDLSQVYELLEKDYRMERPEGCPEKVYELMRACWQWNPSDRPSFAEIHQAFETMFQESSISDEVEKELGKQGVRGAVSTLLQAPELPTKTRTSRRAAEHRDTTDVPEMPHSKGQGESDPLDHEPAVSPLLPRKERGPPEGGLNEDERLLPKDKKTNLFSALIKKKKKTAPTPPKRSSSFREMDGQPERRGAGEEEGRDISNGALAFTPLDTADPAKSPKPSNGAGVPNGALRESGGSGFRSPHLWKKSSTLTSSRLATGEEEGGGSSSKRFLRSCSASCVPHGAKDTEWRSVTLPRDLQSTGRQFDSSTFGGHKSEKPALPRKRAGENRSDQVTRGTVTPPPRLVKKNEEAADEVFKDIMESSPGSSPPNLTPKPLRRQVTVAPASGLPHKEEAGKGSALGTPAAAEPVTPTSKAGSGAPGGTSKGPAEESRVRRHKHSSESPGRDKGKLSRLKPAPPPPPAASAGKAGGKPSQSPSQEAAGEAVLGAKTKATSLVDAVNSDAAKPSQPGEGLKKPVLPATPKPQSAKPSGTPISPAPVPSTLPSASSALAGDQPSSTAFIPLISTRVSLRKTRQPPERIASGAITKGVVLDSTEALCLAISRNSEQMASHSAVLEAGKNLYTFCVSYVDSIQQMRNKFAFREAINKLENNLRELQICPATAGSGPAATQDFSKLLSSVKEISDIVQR
Description: as §1, §2, §3

For data set [2], the system named is T1, Abl (Mt 1) substrate peptide ARYAAPDK
T1 sequence: ARYAAPDK

Data set [3] relates to T2, Abl (Mt 2) substrate peptide AIGAAPFK
T2 sequence: AIGAAPFK

For data set [4], the system named is T3, Abl (wt) substrate peptide AIYAAPFK
T3 sequence: AIYAAPFK

The test system of data set [5] is T4, Src (mt1) substrate peptide EAYGEAKK
T4 sequence: EAYGEAKK

In data set [6] the test system is T5, Src (mt2) substrate peptide EIAGEFKK
T5 sequence: EIAGEFKK

In data set [7] the test system is T6, Src (wt) substrate peptide EIYGEFKK
T6 sequence: EIYGEFKK

The results in this text go back to patent publication US20100248975A1, “Fluorogenic peptide substrate arrays for highly multiplexed, real-time monitoring of kinase activities” (priority 2006, published 2010).

Sequence of Abl kinase (P00519 whole entry): as above

With “EIYGEFKK [SEQ ID NO:13, wild type substrate peptide of Src tyrosine kinase, synthesized in situ on array]”, the “phosphorylation of immobilized peptide (fluorescence of array spots)” value (with Src kinase; in data set [1]) was “phosphorylated” each time.
With “AIYAAPFK [SEQ ID NO:10, wild type substrate peptide of Abl tyrosine kinase, synthesized in situ on array]”, the “phosphorylation of immobilized peptide (fluorescence of array spots)” value (with Abl kinase; in data set [1]) was “phosphorylated” in each case.
On to Src kinase, for which the “phosphorylation of the arrayed peptide, detected with a phospho-specific fluorescent stain” value is recorded as “only the corresponding wild type substrate peptide (either SEQ NO:10 or 13, respectively) was phosphorylated (this peptide not phosphorylated)” in data set [2]; “only the corresponding wild type substrate peptide (either SEQ NO:10 or 13, respectively) was phosphorylated (this peptide not phosphorylated)” in data set [3]; “only the corresponding wild type substrate peptide (either SEQ NO:10 or 13, respectively) was phosphorylated (this peptide not phosphorylated)” in data set [4]; “only the corresponding wild type substrate peptide (either SEQ NO:10 or 13, respectively) was phosphorylated (this peptide not phosphorylated)” in data set [5]; “only the corresponding wild type substrate peptide (either SEQ NO:10 or 13, respectively) was phosphorylated (this peptide not phosphorylated)” in [6]; “in the presence of one kinase, only the corresponding wild type substrate peptide (either SEQ NO:10 or 13, respectively) was phosphorylated” in [7].
Take Abl kinase: the “phosphorylation of the arrayed peptide, detected with a phospho-specific fluorescent stain” value in data set [2] is on record as “only the corresponding wild type substrate peptide (either SEQ NO:10 or 13, respectively) was phosphorylated (this peptide not phosphorylated)”; in data set [3], “only the corresponding wild type substrate peptide (either SEQ NO:10 or 13, respectively) was phosphorylated (this peptide not phosphorylated)”; in data set [4], “in the presence of one kinase, only the corresponding wild type substrate peptide (either SEQ NO:10 or 13, respectively) was phosphorylated”; in data set [5], “only the corresponding wild type substrate peptide (either SEQ NO:10 or 13, respectively) was phosphorylated (this peptide not phosphorylated)”; in data set [6], “only the corresponding wild type substrate peptide (either SEQ NO:10 or 13, respectively) was phosphorylated (this peptide not phosphorylated)”; in data set [7] it was “only the corresponding wild type substrate peptide (either SEQ NO:10 or 13, respectively) was phosphorylated (this peptide not phosphorylated)”.
